Measured values as given in US20110263830A1.
Values belong to the binder of their own block, whether it stands above or below them.

Molecular target: c-Met receptor (human) (UniProt P08581)
Test: cell-based or functional assay

Sequence of UniProt P08581 (P08581 25-1390): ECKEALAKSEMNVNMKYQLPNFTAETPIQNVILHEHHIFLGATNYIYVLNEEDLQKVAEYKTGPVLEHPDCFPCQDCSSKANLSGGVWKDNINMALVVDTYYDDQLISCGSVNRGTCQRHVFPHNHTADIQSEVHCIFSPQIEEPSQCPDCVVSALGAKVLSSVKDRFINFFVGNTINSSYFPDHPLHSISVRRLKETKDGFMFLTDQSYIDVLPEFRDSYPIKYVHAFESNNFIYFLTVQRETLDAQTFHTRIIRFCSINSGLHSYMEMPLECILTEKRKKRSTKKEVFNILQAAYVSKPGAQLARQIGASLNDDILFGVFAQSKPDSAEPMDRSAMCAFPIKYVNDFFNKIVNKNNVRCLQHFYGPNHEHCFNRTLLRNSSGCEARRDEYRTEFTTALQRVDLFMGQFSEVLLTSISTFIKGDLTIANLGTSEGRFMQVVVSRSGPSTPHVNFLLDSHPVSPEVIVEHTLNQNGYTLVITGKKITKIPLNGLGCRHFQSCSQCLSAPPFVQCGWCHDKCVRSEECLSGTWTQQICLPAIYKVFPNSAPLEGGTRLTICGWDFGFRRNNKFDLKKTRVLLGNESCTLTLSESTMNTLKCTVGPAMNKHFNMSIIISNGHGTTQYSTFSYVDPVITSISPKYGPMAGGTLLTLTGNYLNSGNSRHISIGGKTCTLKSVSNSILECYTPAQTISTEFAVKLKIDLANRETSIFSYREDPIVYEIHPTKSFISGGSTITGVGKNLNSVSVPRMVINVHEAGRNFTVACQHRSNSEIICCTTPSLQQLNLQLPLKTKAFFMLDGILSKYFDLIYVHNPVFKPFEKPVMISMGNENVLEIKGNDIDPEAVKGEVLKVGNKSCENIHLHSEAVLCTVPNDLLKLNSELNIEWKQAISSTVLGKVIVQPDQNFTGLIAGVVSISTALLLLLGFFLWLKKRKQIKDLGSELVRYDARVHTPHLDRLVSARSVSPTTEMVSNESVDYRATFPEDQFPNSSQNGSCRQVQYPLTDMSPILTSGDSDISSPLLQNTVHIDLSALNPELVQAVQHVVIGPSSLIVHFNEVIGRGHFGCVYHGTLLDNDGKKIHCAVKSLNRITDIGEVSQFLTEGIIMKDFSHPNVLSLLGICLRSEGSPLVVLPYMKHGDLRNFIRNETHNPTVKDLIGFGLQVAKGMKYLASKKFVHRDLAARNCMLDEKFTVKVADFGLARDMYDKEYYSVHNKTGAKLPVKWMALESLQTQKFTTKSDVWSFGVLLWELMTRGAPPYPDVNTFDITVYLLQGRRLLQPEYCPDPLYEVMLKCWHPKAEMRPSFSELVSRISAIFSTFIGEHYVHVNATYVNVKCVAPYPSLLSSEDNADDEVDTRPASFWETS

agonist effect on c-Met receptor phosphorylation, A549 cells (phospho-c-Met ELISA) (% of HGF effect): < 5
inhibition of HGF [100 ng/ml]-induced c-Met receptor phosphorylation, A549 cells (% inhibition of HGF effect): > 70
inhibition of HGF-induced proliferation of NCI-H441 cells ([3H]Thymidine): 80 % inhibition
B1: murine 227H1 Mab (antibody, from another filing, mouse IgG1, V domains shown)
VH: EVQLQQSGPELVKPGASMKISCKASGYSFTDYTLNWVKQSHGKTLEWIGLINPYNGGTTYNQKFKGKATLTVDKSSSTAYMELLSLTSEDSAVYYCAREEITKDFDFWGQGTTLTVSS
VL: GIVLTQSPASLAVSLGQRATISCRVSESIDTYGNSFIHWYQQKPGQPPKLLIYRASNLESGIPARFSGSGSRTDFTLTINPVEADDSATYYCQQSNEDPFTFGSGTKLEMK

agonist effect on c-Met receptor phosphorylation, A549 cells (phospho-c-Met ELISA) (% of HGF effect): < 5
inhibition of HGF [100 ng/ml]-induced c-Met receptor phosphorylation, A549 cells (% inhibition of HGF effect): > 70
inhibition of HGF-induced proliferation of NCI-H441 cells ([3H]Thymidine): 80 % inhibition
B2: murine 11E1 Mab (antibody, from another filing, mouse IgG1, V domains shown)
VH: QVQLQQSGAELAKPGASVKMSCKASGYTFTSYWMNWVKQRPGQGLEWIGYINPTTGSTDYNQKLKDKATLTADKSSNTAYMQLSSLTSEDSAVYYCAIGGYGSWFAYWGQGTLVTVSA
VL: QIVLTQSPAIMSASPGEKVTLTCSASSSVSSTYLYWYQQKPGSSPKLWIYTTSILASGVPARFSGSGSGTSYSLTISSMETEDAASYFCHQWSSYPFTFGSGTKLDIK
